Test results taken from patent US20240409614.

How the values were obtained:
A1AT-M351V/L353A/M358V = target: T1, A1AT-M351V/L353A/M358V
T1 chain: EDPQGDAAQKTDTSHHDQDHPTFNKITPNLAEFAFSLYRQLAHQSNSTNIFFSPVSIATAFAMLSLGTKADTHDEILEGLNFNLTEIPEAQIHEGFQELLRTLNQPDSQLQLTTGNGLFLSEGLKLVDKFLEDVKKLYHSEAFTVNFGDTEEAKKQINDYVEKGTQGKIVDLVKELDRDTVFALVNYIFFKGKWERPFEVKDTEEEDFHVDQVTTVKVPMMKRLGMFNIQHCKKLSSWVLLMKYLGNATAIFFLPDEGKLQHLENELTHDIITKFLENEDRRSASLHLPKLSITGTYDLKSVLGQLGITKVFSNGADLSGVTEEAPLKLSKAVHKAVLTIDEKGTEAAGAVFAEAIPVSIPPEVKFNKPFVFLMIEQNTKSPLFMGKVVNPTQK

A1AT-M351V/L353S/M358V = target: T2, A1AT-M351V/L353S/M358V
T2 chain: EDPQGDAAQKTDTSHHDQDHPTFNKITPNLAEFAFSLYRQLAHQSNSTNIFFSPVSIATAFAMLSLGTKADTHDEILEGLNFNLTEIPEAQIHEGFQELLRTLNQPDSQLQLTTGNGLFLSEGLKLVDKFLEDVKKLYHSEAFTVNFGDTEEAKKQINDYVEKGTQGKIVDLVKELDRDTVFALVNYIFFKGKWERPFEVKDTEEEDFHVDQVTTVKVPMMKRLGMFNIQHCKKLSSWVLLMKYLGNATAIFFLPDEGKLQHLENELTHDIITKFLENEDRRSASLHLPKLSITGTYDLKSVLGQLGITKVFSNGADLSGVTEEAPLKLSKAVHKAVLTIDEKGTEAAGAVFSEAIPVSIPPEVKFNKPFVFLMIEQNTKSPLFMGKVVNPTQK

A1AT-M351V/L353T/M358V = target: T3, A1AT-M351V/L353T/M358V
T3 chain: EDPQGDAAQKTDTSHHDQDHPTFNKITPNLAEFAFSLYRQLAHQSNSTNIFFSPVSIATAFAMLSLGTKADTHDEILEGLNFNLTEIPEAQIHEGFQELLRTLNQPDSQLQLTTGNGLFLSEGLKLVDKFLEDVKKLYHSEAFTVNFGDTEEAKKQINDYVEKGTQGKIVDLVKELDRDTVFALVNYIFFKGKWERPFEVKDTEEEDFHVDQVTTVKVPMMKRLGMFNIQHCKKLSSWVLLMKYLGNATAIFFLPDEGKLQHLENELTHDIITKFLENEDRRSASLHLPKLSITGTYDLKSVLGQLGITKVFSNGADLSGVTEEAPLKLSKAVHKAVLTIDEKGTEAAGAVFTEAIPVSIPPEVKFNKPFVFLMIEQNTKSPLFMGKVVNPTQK

[1] = target: wildtype alpha-1-antitrypsin (A1AT)

B1: MMP-9 (ProSpec, cat #enz-438) (protein)
chain: APRQRQSTLVLFPGDLRTNLTDRQLAEEYLYRYGYTRVAEMRGESKSLGPALLLLQKQLSLPETGELDSATLKAMRTPRCGVPDLGRFQTFEGDLKWHHHNITYWIQNYSEDLPRAVIDDAFARAFALWSAVTPLTFTRVYSRDADIVIQFGVAEHGDGYPFDGKDGLLAHAFPPGPGIQGDAHFDDDELWSLGKGVVVPTRFGNADGAACHFPFIFEGRSYSACTTDGRSDGLPWCSTTANYDTDDRFGFCPSERLYTQDGNADGKPCQFPFIFQGQSYSACTTDGRSDGYRWCATTANYDRDKLFGFCPTRADSTVMGGNSAGELCVFPFTFLGKEYSTCTSEGRGDGRLWCATTSNFDSDKKWGFCPDQGYSLFLVAAHEFGHALGLDHSSVPEALMYPMYRFTEGPPLHKDDVNGIRHLYGPRPEPEPRPPTTTTPQPTAPPTVCPTGPPTVHPSERPTAGPTGPPSAGPTGPPTAGPSTATTVPLSPVDDACNVNIFDAIAEIGNQLYLFKDGKYWRFSEGRGSRPQGPFLIADKWPALPRKLDSVFEERLSKKLFFFSGRQVWVYTGASVLGPRRLDKLGLGADVAQVTGALRSGRGKMLLFSGRRLWRFDVKAQMVDPRSASEVDRMFPGVPLDTHDVFQYREKAYFCQDRFYWRVSSRSELNQVDQVGYVTYDILQCPED
Work on B1 yielded a cleaved (%) after MMP-9 treatment (SDS-PAGE) (A1AT-M351V/L353A/M358V) of 6%, a non-cleaved (%) after MMP-9 treatment (SDS-PAGE) (A1AT-M351V/L353A/M358V) of 94% and a cleaved (%) after MMP-9 treatment (SDS-PAGE) (A1AT-M351V/L353S/M358V) of 0%. The non-cleaved (%) after MMP-9 treatment (SDS-PAGE) (A1AT-M351V/L353S/M358V) was 100%, the cleaved (%) after MMP-9 treatment (SDS-PAGE) (A1AT-M351V/L353T/M358V) was 0% and the non-cleaved (%) after MMP-9 treatment (SDS-PAGE) (A1AT-M351V/L353T/M358V) was 100%. It also gave a cleaved (%) after MMP-9 treatment (SDS-PAGE) (A1AT-M351V/M358V) of 25%, a non-cleaved (%) after MMP-9 treatment (SDS-PAGE) (A1AT-M351V/M358V) of 75% and a cleaved (%) after MMP-9 treatment (SDS-PAGE) [1] of 89%. The non-cleaved (%) after MMP-9 treatment (SDS-PAGE) [1] was 11%.

B2: MMP-7 (ProSpec, cat #enz-271) (protein)
chain: YSLFPNSPKWTSKVVTYRIVSYTRDLPHITVDRLVSKALNMWGKEIPLHFRKVVWGTADIMIGFARGAHGDSYPFDGPGNTLAHAFAPGTGLGGDAHFDEDERWTDGSSLGINFLYAATHELGHSLGMGHSSDPNAVMYPTYGNGDPQNFKLSQDDIKGIQKLYGKRSNSRKK
For B2, the “proteolytic degradation by MMP-7 (SDS-PAGE, FIG. 4)” value (“proteolytic degradation” below) (A1AT-L353A) was “A0025 showed as little degradation by MMP-7 as A0028 and A0031”, the “proteolytic degradation” value (A1AT-L353A/M358V) was “A0025 showed as little degradation by MMP-7 as A0028 and A0031” and the “proteolytic degradation” value (A1AT-M351V/L353A) was “A0025 showed as little degradation by MMP-7 as A0028 and A0031”. For the same protein, the cleaved (%) after MMP-7 treatment (SDS-PAGE) (A1AT-M351V/L353A/M358V) was 0%, the non-cleaved (%) after MMP-7 treatment (SDS-PAGE) (A1AT-M351V/L353A/M358V) was 100% and the cleaved (%) after MMP-7 treatment (SDS-PAGE) (A1AT-M351V/L353S/M358V) was 0%. For the same protein, the non-cleaved (%) after MMP-7 treatment (SDS-PAGE) (A1AT-M351V/L353S/M358V) was 100%, the cleaved (%) after MMP-7 treatment (SDS-PAGE) (A1AT-M351V/L353T/M358V) was 5% and the non-cleaved (%) after MMP-7 treatment (SDS-PAGE) (A1AT-M351V/L353T/M358V) was 95%. It also gave a cleaved (%) after MMP-7 treatment (SDS-PAGE) (A1AT-M351V/M358V) of 63%, a non-cleaved (%) after MMP-7 treatment (SDS-PAGE) (A1AT-M351V/M358V) of 37% and a cleaved (%) after MMP-7 treatment (SDS-PAGE) [1] of 96%. The non-cleaved (%) after MMP-7 treatment (SDS-PAGE) [1] was 4%.
